Results taken from US20040043378A1.

Experiments:
[1] = target: lysine-acetylated histone H4 peptide SGRGKGG-AcK-GLGK (Lys8 acetylated); assay: NMR titration, amide chemical shift changes in 15N-HSQC spectra against ligand concentration
[2] = target: histone H4 AcK16 peptide …-AcK-RHRK (SEQ ID NO:59); assay: NMR 2D 1H-15N HSQC titration; 'binds weakly'
histone H4 AcK16 peptide …-AcK-RHRK (SEQ ID NO:59), sequence (peptide, as listed by the source): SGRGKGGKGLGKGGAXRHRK

Kd [1] [µM] | Kd [2] [µM] | Binder
346 |  | P/CAF bromodomain (residues 719-832 of human p300/CBP-associated factor), wild-type, Q92831 719-832 (protein) SKEPRDPDQLYSTLKSILQQVKSHQSAWPFMEPVKRTEAPGYYEVIRFPMDLKTMSERLKNRYYVSKKLFMADLQRVFTNCKEYNAAESEYYKCANILEKFFFSKIKEAGLIDK
 | < 300 | bromodomain of P/CAF (residues 719-832 of SEQ ID NO:2), Q92831 719-832 (protein) SKEPRDPDQLYSTLKSILQQVKSHQSAWPFMEPVKRTEAPGYYEVIRFPMDLKTMSERLKNRYYVSKKLFMADLQRVFTNCKEYNAAESEYYKCANILEKFFFSKIKEAGLIDK
